Laboratory results taken from patent US20160046684A1, “Methods and compositions for treatment of PTP1B-related diseases” (BROWN UNIVERSITY, priority 2014, published 2016).

B1: PTP1BY153F: PTP1B1-301 mutant with mutation in the L11 loop (protein, UniProt P18031 1-301, looked up, variant Y153F)
chain: MEMEKEFEQIDKSGSWAAIYQDIRHEASDFPCRVAKLPKNKNRNRYRDVSPFDHSRIKLHQEDNDYINASLIKMEEAQRSYILTQGPLPNTCGHFWEMVWEQKSRGVVMLNRVMEKGSLKCAQYWPQKEEKEMIFEDTNLKLTLISEDIKSYFTVRQLELENLTTQETREILHFHYTTWPDFGVPESPASFLNFLFKVRESGSLSPEHGPVVVHCSAGIGRSGTFCLADTCLLLMDKRKDPSSVDIKKVLLEMRKFRMGLIQTADQLRFSYLAVIEGAKFIMGDSSVQDQWKELSHEDLEP
B2: PTP1BS295A: PTP1B1-301 mutant with point mutation in the α7 helix (protein, UniProt P18031 1-301, looked up, variant S295A)
chain: MEMEKEFEQIDKSGSWAAIYQDIRHEASDFPCRVAKLPKNKNRNRYRDVSPFDHSRIKLHQEDNDYINASLIKMEEAQRSYILTQGPLPNTCGHFWEMVWEQKSRGVVMLNRVMEKGSLKCAQYWPQKEEKEMIFEDTNLKLTLISEDIKSYYTVRQLELENLTTQETREILHFHYTTWPDFGVPESPASFLNFLFKVRESGSLSPEHGPVVVHCSAGIGRSGTFCLADTCLLLMDKRKDPSSVDIKKVLLEMRKFRMGLIQTADQLRFSYLAVIEGAKFIMGDSSVQDQWKELAHEDLEP
B3: PTP1BS190A: PTP1B1-301 mutant with mutation in the α3 helix (protein, UniProt P18031 1-301, looked up, variant S190A)
chain: MEMEKEFEQIDKSGSWAAIYQDIRHEASDFPCRVAKLPKNKNRNRYRDVSPFDHSRIKLHQEDNDYINASLIKMEEAQRSYILTQGPLPNTCGHFWEMVWEQKSRGVVMLNRVMEKGSLKCAQYWPQKEEKEMIFEDTNLKLTLISEDIKSYYTVRQLELENLTTQETREILHFHYTTWPDFGVPESPAAFLNFLFKVRESGSLSPEHGPVVVHCSAGIGRSGTFCLADTCLLLMDKRKDPSSVDIKKVLLEMRKFRMGLIQTADQLRFSYLAVIEGAKFIMGDSSVQDQWKELSHEDLEP
B4: PTP1BD298A: PTP1B1-301 mutant with point mutation in the α7 helix (protein, UniProt P18031 1-301, looked up, variant D298A)
chain: MEMEKEFEQIDKSGSWAAIYQDIRHEASDFPCRVAKLPKNKNRNRYRDVSPFDHSRIKLHQEDNDYINASLIKMEEAQRSYILTQGPLPNTCGHFWEMVWEQKSRGVVMLNRVMEKGSLKCAQYWPQKEEKEMIFEDTNLKLTLISEDIKSYYTVRQLELENLTTQETREILHFHYTTWPDFGVPESPASFLNFLFKVRESGSLSPEHGPVVVHCSAGIGRSGTFCLADTCLLLMDKRKDPSSVDIKKVLLEMRKFRMGLIQTADQLRFSYLAVIEGAKFIMGDSSVQDQWKELSHEALEP
B5: PTP1BE297A: PTP1B1-301 mutant with point mutation in the α7 helix (protein, UniProt P18031 1-301, looked up, variant E297A)
chain: MEMEKEFEQIDKSGSWAAIYQDIRHEASDFPCRVAKLPKNKNRNRYRDVSPFDHSRIKLHQEDNDYINASLIKMEEAQRSYILTQGPLPNTCGHFWEMVWEQKSRGVVMLNRVMEKGSLKCAQYWPQKEEKEMIFEDTNLKLTLISEDIKSYYTVRQLELENLTTQETREILHFHYTTWPDFGVPESPASFLNFLFKVRESGSLSPEHGPVVVHCSAGIGRSGTFCLADTCLLLMDKRKDPSSVDIKKVLLEMRKFRMGLIQTADQLRFSYLAVIEGAKFIMGDSSVQDQWKELSHADLEP
B6: PTP1BL195A: PTP1B1-301 mutant with mutation in the α3 helix (protein, UniProt P18031 1-301, looked up, variant L195A)
chain: MEMEKEFEQIDKSGSWAAIYQDIRHEASDFPCRVAKLPKNKNRNRYRDVSPFDHSRIKLHQEDNDYINASLIKMEEAQRSYILTQGPLPNTCGHFWEMVWEQKSRGVVMLNRVMEKGSLKCAQYWPQKEEKEMIFEDTNLKLTLISEDIKSYYTVRQLELENLTTQETREILHFHYTTWPDFGVPESPASFLNFAFKVRESGSLSPEHGPVVVHCSAGIGRSGTFCLADTCLLLMDKRKDPSSVDIKKVLLEMRKFRMGLIQTADQLRFSYLAVIEGAKFIMGDSSVQDQWKELSHEDLEP
B7: PTP1BF196A: PTP1B1-301 mutant with mutation in the α3 helix (protein, UniProt P18031 1-301, looked up, variant F196A)
chain: MEMEKEFEQIDKSGSWAAIYQDIRHEASDFPCRVAKLPKNKNRNRYRDVSPFDHSRIKLHQEDNDYINASLIKMEEAQRSYILTQGPLPNTCGHFWEMVWEQKSRGVVMLNRVMEKGSLKCAQYWPQKEEKEMIFEDTNLKLTLISEDIKSYYTVRQLELENLTTQETREILHFHYTTWPDFGVPESPASFLNFLAKVRESGSLSPEHGPVVVHCSAGIGRSGTFCLADTCLLLMDKRKDPSSVDIKKVLLEMRKFRMGLIQTADQLRFSYLAVIEGAKFIMGDSSVQDQWKELSHEDLEP
B8: PTP1BK292A: PTP1B1-301 mutant with point mutation in the α7 helix (protein, UniProt P18031 1-301, looked up, variant K292A)
chain: MEMEKEFEQIDKSGSWAAIYQDIRHEASDFPCRVAKLPKNKNRNRYRDVSPFDHSRIKLHQEDNDYINASLIKMEEAQRSYILTQGPLPNTCGHFWEMVWEQKSRGVVMLNRVMEKGSLKCAQYWPQKEEKEMIFEDTNLKLTLISEDIKSYYTVRQLELENLTTQETREILHFHYTTWPDFGVPESPASFLNFLFKVRESGSLSPEHGPVVVHCSAGIGRSGTFCLADTCLLLMDKRKDPSSVDIKKVLLEMRKFRMGLIQTADQLRFSYLAVIEGAKFIMGDSSVQDQWAELSHEDLEP
B9: PTP1BL294A: PTP1B1-301 mutant with point mutation in the α7 helix (protein, UniProt P18031 1-301, looked up, variant L294A)
chain: MEMEKEFEQIDKSGSWAAIYQDIRHEASDFPCRVAKLPKNKNRNRYRDVSPFDHSRIKLHQEDNDYINASLIKMEEAQRSYILTQGPLPNTCGHFWEMVWEQKSRGVVMLNRVMEKGSLKCAQYWPQKEEKEMIFEDTNLKLTLISEDIKSYYTVRQLELENLTTQETREILHFHYTTWPDFGVPESPASFLNFLFKVRESGSLSPEHGPVVVHCSAGIGRSGTFCLADTCLLLMDKRKDPSSVDIKKVLLEMRKFRMGLIQTADQLRFSYLAVIEGAKFIMGDSSVQDQWKEASHEDLEP
B10: PTP1BF194A: PTP1B1-301 mutant with mutation in the α3 helix (protein, UniProt P18031 1-301, looked up, fragment F194A)
chain: MEMEKEFEQIDKSGSWAAIYQDIRHEASDFPCRVAKLPKNKNRNRYRDVSPFDHSRIKLHQEDNDYINASLIKMEEAQRSYILTQGPLPNTCGHFWEMVWEQKSRGVVMLNRVMEKGSLKCAQYWPQKEEKEMIFEDTNLKLTLISEDIKSYYTVRQLELENLTTQETREILHFHYTTWPDFGVPESPASFLNALFKVRESGSLSPEHGPVVVHCSAGIGRSGTFCLADTCLLLMDKRKDPSSVDIKKVLLEMRKFRMGLIQTADQLRFSYLAVIEGAKFIMGDSSVQDQWKELSHEDLEP
B11: PTP1BG283P: PTP1B1-301 mutant with point mutation in the α7 helix (protein, UniProt P18031 1-301, looked up, variant G283P)
chain: MEMEKEFEQIDKSGSWAAIYQDIRHEASDFPCRVAKLPKNKNRNRYRDVSPFDHSRIKLHQEDNDYINASLIKMEEAQRSYILTQGPLPNTCGHFWEMVWEQKSRGVVMLNRVMEKGSLKCAQYWPQKEEKEMIFEDTNLKLTLISEDIKSYYTVRQLELENLTTQETREILHFHYTTWPDFGVPESPASFLNFLFKVRESGSLSPEHGPVVVHCSAGIGRSGTFCLADTCLLLMDKRKDPSSVDIKKVLLEMRKFRMGLIQTADQLRFSYLAVIEGAKFIMPDSSVQDQWKELSHEDLEP
B12: PTP1BY152F: PTP1B1-301 mutant with mutation in the L11 loop (protein, UniProt P18031 1-301, looked up, variant Y152F)
chain: MEMEKEFEQIDKSGSWAAIYQDIRHEASDFPCRVAKLPKNKNRNRYRDVSPFDHSRIKLHQEDNDYINASLIKMEEAQRSYILTQGPLPNTCGHFWEMVWEQKSRGVVMLNRVMEKGSLKCAQYWPQKEEKEMIFEDTNLKLTLISEDIKSFYTVRQLELENLTTQETREILHFHYTTWPDFGVPESPASFLNFLFKVRESGSLSPEHGPVVVHCSAGIGRSGTFCLADTCLLLMDKRKDPSSVDIKKVLLEMRKFRMGLIQTADQLRFSYLAVIEGAKFIMGDSSVQDQWKELSHEDLEP

test system: PTP1B; assay: Phosphatase activity of PTP1B constructs against pNPP (enzyme assay); format: biochemical, human; conditions: pNPP substrate, pH 7.5, 0.015 μM PTP1B (FIG. 27, 32A, 32B)
Experimental: Phosphatase activity of PTP1B against the general PTP/DUSP substrate, p-nitrophenyl phosphate (pNPP), was tested in 50 mM HEPES pH 7.5, 150 mM NaCl, 0.5 mM TCEP. 40 μl of enzyme at a 1.5 μM concentration was added to 60 μl of pNPP substrate resuspended in the reaction buffer. See, FIG. 25. The final concentrations of pNPP used in this experiment were […]. The enzyme was incubated with the substrate at 30° C. for 30 min, after which 100 μl of 1 M NaOH was added to a final concentration of 0.5 M NaOH to quench the reaction. Absorbance was measured at 405 nm and the final concentration of p-nitrophenol (pNP) was calculated using the molar extinction coefficient of 18000 M-1 cm-1. A control reaction in which substrate was incubated in the absence of enzyme was subtracted from all other experimental values. All experiments were performed in triplicate.
Enzyme assays were performed at pH 7.5 with 0.15 μM PTP1B to compare the activities of wild-type PTP1B1-301 to mutants with mutations in the L11 loop: PTP1BY152A/F, PTP1BY153A/F, and PTP1BYAYA. See, FIG. 17. […] Ibid. […] Ibid. […] Ibid. […] Ibid. […] Ibid. […] Ibid.
Enzyme assays were performed at pH 7.5 with 0.015 μM PTP1B to compare the activities of wild-type PTP1B1-301 to mutants with mutations in the α3 helix such as PTP1BN193A. See, FIG. 27. […] Ibid. […] Ibid. […] Ibid. […] Ibid. […] Ibid. […] Ibid.
An enzyme assay was used to compare the activity of wild-type PTP1B1-301 to the activity of PTP1B1-284 P185G. See, FIG. 15. Enzyme assays were performed at pH 7.5 with 0.015 μM PTP1B to compare the activities of wild-type PTP1B1-301 to mutants with mutations in the α7 helix. See, FIG. 32A. In one embodiment, these point mutations were made in an amino acid sequence substantially similar to SEQ ID NO: 2.

| Molecule | Km [µM] | kcat [s⁻¹] |
| --- | --- | --- |
| B1 | 620 ± 70 | 6.0 ± 0.2 |
| B2 | 800 ± 70 | 4.5 ± 0.1 |
| B3 | 370 ± 50 | 6.1 ± 0.3 |
| B4 | 480 ± 100 | 6.3 ± 0.4 |
| B5 | 720 ± 120 | 4.6 ± 0.3 |
| B6 | 290 ± 30 | 4.1 ± 0.1 |
| B7 | 320 ± 40 | 4.2 ± 0.2 |
| B8 | 380 ± 50 | 6.1 ± 0.3 |
| B9 | 730 ± 50 | 5.1 ± 0.1 |
| B10 | 390 ± 50 | 5.3 ± 0.3 |
| B11 | 850 ± 70 | 4.9 ± 0.2 |

same assay, conditions: pNPP substrate, pH 7.5, 0.15 μM PTP1B (FIG. 17)

| Molecule | Km [µM] | kcat [s⁻¹] |
| --- | --- | --- |
| B1 | 900 ± 80 | 3.4 ± 0.3 |
| B12 | 950 ± 40 | 3.4 ± 0.1 |
